# Entries after “also recorded” stand apart in the source; their conditions may differ. Like-named read-outs stand apart in the source and are kept apart here.
# B1: IL-28B: recombinant IL-28B, a member of the interferon (IFN)-λ family (protein)
# chain: VPVARLRGALPDARGCHIAQFKSLSPQELQAFKRAKDALEESLLLKDCKCRSRLFPRTWDLRQLQVRERPVALEAELALTLKVLEATADTDPALGDVLDQPLHTLHHILSQLRACIQPQPTAGPRTRGRLHHWLHRLQEAPKKESPGCLEASVTFNLFRLLTRDLNCVASGDLCV
# modifications: left off: His tag, end not stated, kept
# notes: recombinant IL-28B, a member of the interferon (IFN)-λ family
# Columns and labels:
# [1] = tested on: PBMCs from healthy volunteers; type: cell-based, human; conditions: 0 ng/mL: 19.2%, p = 0.92
# Description: Prior to surface staining, LIVE/DEAD staining was performed (near-IR; Invitrogen). Markers for identifying T-cell subsets were CD3, and CD4. Intracellular cytokine staining was performed according to previously published protocols after overnight stimulation. IL-4 was used as a key representative for Th2 cytokine production. Background (unstimulated samples) were subtracted from stimulated results. All reagents including perm and fixation buffers and antibodies were from eBioscience. Isotype controls have previously been used to establish the assays.
# [2] = tested on: B-cells in PBMCs from healthy volunteers; assay: H1N1-stimulated B-cell proliferation (Cell Trace Violet); type: cell-based, human
# [3] = tested on: T-cells, monocytes and macrophages; conditions: ref [42], [43]; cited from earlier work
# Description: The IFN-λ family (Interleukin-28A, -28B, -29, and IFN-λ4) is a recently described class of IFNs with antiviral properties similar to IFN-α and -β [14]–[17]. IFN-λ is known to induce phosphorylation of STAT-1 and -2 via binding to its receptor, which is a heterodimer consisting of the IL-28 receptor alpha subunit (IL28RA) and IL-10 receptor beta subunit (IL10RB). […] Furthermore, IFN-λs induced the development of T-regu ... || IL-28B (IFN-λ3) belongs to the family of IFN-lambdas and shares antiviral properties similar to IFN-α via induction of interferon stimulated genes (ISGs) such as MX1 or OAS1 [41]. […] IL-12 is a key cytokine for the induction of Th1 cells and cytotoxic lymphocytes, [43]. SNPs in the IL-28B gene (minor-allele genotypes) have been associated with reduced IL-28B expression, [29]–[33], which could impact adaptive immune functions during vaccination. One limitation of our study is that we d ...
# [4] = tested on: PBMCs from healthy volunteers; assay: Time course of cytokine release, independently recruited healthy volunteers (S3 Figure); type: cell-based, human; conditions: IL-28B 100 ng/ml
# Description: Two luminex-based cytokine profiling kits were used (Eve Technologies, Calgary, Canada). (i) 17-plex: Fractalkine, IFN-α, IFN-γ, GRO, MCP-3, IL-13, sCD40-L, IL-9, IL-1β, IL-2, IL-4, IL-5, IL-6, IP-10, MCP-1, MIP-1α, and TNF-α. (ii) 41-plex: EGF, Eotaxin, FGF-2, FLT3, Fractalkine, G-CSF, GM-CSF, GRO. IFN-α2, IFN-γ, IL-1α, IL-1β, IL-1ra, IL-2, IL-3, IL-4, IL-5, IL-6, IL-7, IL-8, IL-9, IL-10, IL-12p40, IL-12p70, IL-13, IL-15, IL-17, IP-10, MCP-1, MCP-3, MDC, MIP-1α, MIP-1β, PDGF AA, PDGF AB/BB, RANTES, sCD40L, sIL2ra, TGF-α, TNF-α, TNF-β, and VEGF. Our independent experiment for examining a time course of cytokine induction was a custom-plex based on the 17-plex and still run and analyzed by Eve Technologies.
# Supplementary file ppat.1004556.s003.tiff: S3 Figure A cytokine profile with pH1N1 stimulation +/− IL-28B pre-treatment (100 ng/ml) was performed. The time-points were collected within the same experiments. For the first 3 HVs studied, d+5 sample was not collected. Overall, the time-points d+1, d+3, d+7 were available in total 10 HVs and for d+5 in 7 HVs. Wilcoxon matched pairs rank test was used to test for significant difference. (TIFF) Click here for additional data file.
# [5] = tested on: CD3+CD4+ T-cells in PBMCs from transplant recipients; type: cell-based, human
molecule,measurement,setting,value
B1,median % dead cells,[1]; IL-28B 1 ng/mL,19.9%
same,median % dead cells,[1]; IL-28B 10 ng/mL,23.6%
same,median % dead cells,[1]; IL-28B 100 ng/mL,22.6%
same,reduction in proliferation capacity of memory B-cells,"[2]; 5-day H1N1, n = 6",70%
same,H1N1-stimulated B-cell proliferation (in words),"[2]; IL-28B 1, 10, 100 ng/mL, 5-day H1N1, n = 6",dose-dependent decrease
same,reduction of H1N1-stimulated B-cell proliferation,"[2]; abstract, in vitro",70%
same,IL-12 production in monocytes and macrophages,[3],induce IL-12 production in monocytes and macrophages
same,IFN-γ (in words),[4],trend for upregulation
same,"Th1 and Th1-associated cytokines, early time-points (in words)",[4],"significantly up-regulated (IFN-α, IL12p40, TNF- α, and IL-6)"
same,"Th2 and Th2-associated cytokines, later time-points (in words)",[4],down-regulated
same,fold reduction in IL-4 production by CD3+CD4+ T-cells,"[5]; IL-28B 100 ng/mL, 2 h before overnight H1N1, transplant recipients n = 47",> 2 -fold
same,sensitivity of IL-4 production to IL-28B by genotype,"[5]; minor allele (TG or GG) PBMCs, 45 transplant recipients",particularly pronounced in patients with a minor allele genotype; also recorded: strong sensitivity to IL-28B

# — PMC4263767, “IL-28B is a Key Regulator of B- and T-Cell Vaccine Responses against Influenza” (PLoS Pathogens, 2014)
